{"source": "the nanobody polyreactivity screen of Harvey et al. (2022)", "data": [{"test": "yeast display, Sf9 membrane polyspecificity reagent, FACS + sequencing; frameworks hold sequencing errors", "procedure,_shortened": "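Using colony PCR, genes from sorted yeast display clones were amplified, then sequenced on MiSeq at 2 × 250 and filtered by CDR length. The clones had been stained with 10% biotinylated, detergent-solubilized Sf9 membrane reagent for 1 hour at 4 °C and sorted by FACS into low and high (top ~1%) gates on anti-HA and streptavidin fluorescence. Polyreactivity labels come from the gate of origin.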", "values": [{"sequence": "QVQLVESGGGLVQAGGSLRLSCAASGFIFSYNAMGWYRQAPGKERELVAAISSRGGSTYYADSVKGRFTISRDNAKNTVYLQTKSLKPEDTAVYYCAVASRRVYTAPYDYWGQGTQVTVSS", "polyreactivity (PSR sort gate)": "high polyreactivity"}, {"sequence": "QVQLVESGGGLVQAGGSLRLSCAASGFIFSYNAMGWYRQAPGKERELVAAISSRGGSTYYADSVMGRFTISRDNAKNTVYLQMNSLKPEDTAVSYCAVASRRVYTAPSDYWGQGTQVTVSS", "polyreactivity (PSR sort gate)": "high polyreactivity"}, {"sequence": "QVQLVESGGGLVQAGGSLRLSCAASGFIFSYYAMGWYIQEPGKERELVAAITVTGGNTYYADSVKGRFTISRDNAKNTVYLQMNSLIPEDTAVYYCAAVVRGPGVSVYYWGLGTQVTVSS", "polyreactivity (PSR sort gate)": "low polyreactivity"}, {"sequence": "QVQLVESGGGLVQAGGSLRLSCAASGFIFSYYAMGWYRQAPGKERELVAAISGRGGSTYYADSVKGRFTISRDNEKNTVYLQMNSLKPEDTAVYYCAATTLRFYRHGDYWGQGTQVTVSS", "polyreactivity (PSR sort gate)": "low polyreactivity"}, {"sequence": "QVQLVESGGGLVQAGGSLRLSCAASGFIFSYYAMGWYRQAPGKERELVAAITSNGGSTYYADSVKGRFTISRDNAKNTVYLQMNSLKPEDTAVYYCNVKYRYWNQGYGSWGQGTQVTVSS", "polyreactivity (PSR sort gate)": "high polyreactivity"}, {"sequence": "QVQLVESGGGLVQAGGSLRLSCAASGFIFSYYTMGWYRQAPGKERELVAAITSGGSTNYADSVKGRFTISRDNAKNTVYLQMNSLKPEDTAVYYCNALLWAWTLWGSGYDYWGQGTQVTVSS", "polyreactivity (PSR sort gate)": "low polyreactivity"}, {"sequence": "QVQLVESGGGLVQAGGSLRLSCAASGFIFTANAMGWYRQAPGKESELVANINRSGDSTYYADSVKGRFTISRDNAKNTVYLQMNSLKPEDTAVYYCNKDWHSQVFSAYNSYDYWGQGTQVTVSS", "polyreactivity (PSR sort gate)": "low polyreactivity"}, {"sequence": "QVQLVESGGGLVQAGGSLRLSCAASGFIFTDNVMGWYRQAPGKERELVAAISRRGGSTYYADSVKGRFTISRDNAKNTVYLQMNSLKPEDTAVYYCNVARQSYLLDYWGQGTQVTVSS", "polyreactivity (PSR sort gate)": "high polyreactivity"}, {"sequence": "QVQLVESGGGLVQAGGSLRLSCAASGFIFTDYAMGWYRQAPGKERELVATISWSGSSTYYADSVKGRFTISRDNEKNTVYLQMNILKPEDTGVYYCAAEFWYTYPYLVDYWRQGTQVTVSS", "polyreactivity (PSR sort gate)": "low polyreactivity"}, {"sequence": "QVQLVESGGGLVQAGGSLRLSCAASGFIFTFYAMGWYRQEPGKEREFVASIDWGDGSTYYADSVKGRFTISRDNAKNTVYLQMNSLKPEDTAVYYCAHDYDGYVWDTEYDYWGQGTQVTVSS", "polyreactivity (PSR sort gate)": "low polyreactivity"}, {"sequence": "QVQLVESGGGLVQAGGSLRLSCAASGFIFTGNAMGWYRQAPGKERELVAAITGRGSTYYADSVKGRFTISRDNAKNTVYLQMNSLKPEDTAVYYCAAKRWWQYYWGQGTQVTVSS", "polyreactivity (PSR sort gate)": "high polyreactivity"}, {"sequence": "QVQLVESGGGLVQAGGSLRLSCAASGFIFTGNVMGWYRQAPGKERELVAAIRWSGGRTYYADSVKGRFTISRDNAKNTVYLQMNSLKPEDTAVYYCNALGRVQGYKPGGLDYWGQGTQVTVSS", "polyreactivity (PSR sort gate)": "high polyreactivity"}, {"sequence": "QVQLVESGGGLVQAGGSLRLSCAASGFIFTGYTMGWYRQAPGKERELVARISSGDSTKYADSVKGRFTISRDNAKNTVYLQMNSLKPEDTAVYYCAATTGYTARWRNRYIYYYWGQGTQVTVSS", "polyreactivity (PSR sort gate)": "high polyreactivity"}, {"sequence": "QVQLVESGGGLVQAGGSLRLSCAASGFIFTKYTMGWYRQAPGKERELVADITGRGTSTYADSVKGRFTISRDNAKNTVYLQMNSLKPEDTAVYYCAAVGWFADFLFSDINGYYWGQGTQVTVSS", "polyreactivity (PSR sort gate)": "low polyreactivity"}, {"sequence": "QVQLVESGGGLVQAGGSLRLSCAASGFIFTNVMGWYRQAPGKERELVASISSGGRTYYADSVKGRFTISRDNAKNTVYLQLNSLKPEDTAVYYCAKKKLLSVPARGYDYVYYWGQGTQVTVSS", "polyreactivity (PSR sort gate)": "high polyreactivity"}, {"sequence": "QVQLVESGGGLVQAGGSLRLSCAASGFIFTRNVMGWYRQAPGKERELVAGITYTSGSTYYADSVKGRFTISRDNAKNTVYLQMNSLKPEDTAVYYCAAEITRHYVFGDDYWGQGTQVTVSS", "polyreactivity (PSR sort gate)": "low polyreactivity"}, {"sequence": "QVQLVESGGGLVQAGGSLRLSCAASGFIFTRYAMGWYRQAPGKERELVAAISASGGSTYYADSVKGRFTISRDNAKNTVYLQMKSLKPEETAVYYCAAVPYRYTYDYWGQGTQLTVSS", "polyreactivity (PSR sort gate)": "high polyreactivity"}, {"sequence": "QVQLVESGGGLVQAGGSLRLSCAASGFIFTSYAMGWYRQAPGKERELVAAITDGGSTNYADSVKGRFTISRDNAKNTVYLQMNSLKPEDTAVYYCAADGFKTVLPEYDYWGQGTQVTVSS", "polyreactivity (PSR sort gate)": "low polyreactivity"}, {"sequence": "QVQLVESGGGLVQAGGSLRLSCAASGFIFTYNAMGWYRQAPGKETEFVASISRSGGRTYYADSVKGRFTISRDNAKNTVYLQMNSLKPEDTAVYYCAARNAYVYGMDYWGHGTQVTVSS", "polyreactivity (PSR sort gate)": "low polyreactivity"}, {"sequence": "QVQLVESGGGLVQAGGSLRLSCAASGFIFTYYAMGWYRAAPGKERELVAAIRGSGGRTYYADSVKGRFTISRDNAKNTVYLQMNSLKPEDTAVYYCTADPTWFGYVYYQYDYWGQGTQVTVSS", "polyreactivity (PSR sort gate)": "low polyreactivity"}, {"sequence": "QVQLVESGGGLVQAGGSLRLSCAASGFIFTYYAMGWYRQAPGKERELVAAISRIGGSTYYADSVKGRFTISRDNAKYTVYLQMNSLKPEDTAVYYCARYSWPLNKLAVDYWGQGTQVTVSS", "polyreactivity (PSR sort gate)": "high polyreactivity"}, {"sequence": "QVQLVESGGGLVQAGGSLRLSCAASGFIFTYYTMGWYRPAPGKERELVAAISRTGSTNYADSVKGRFTISRDNAKNTVYLQMNSLKPEDTAVYFCNARYRGWLTLDGGYGYWGQGTQVTVSS", "polyreactivity (PSR sort gate)": "low polyreactivity"}, {"sequence": "QVQLVESGGGLVQAGGSLRLSCAASGFIFTYYVMGWYRQAPGKERELVATISISDGTTYADSVKGRFTISRDNAKNTVYLQMNSLKPEDTAVYYCAKYFTTYKYDYWGQGTQVTVSS", "polyreactivity (PSR sort gate)": "low polyreactivity"}, {"sequence": "QVQLVESGGGLVQAGGSLRLSCAASGFIFVDNAMGWYRQAPGKERELVAAITYRGGSTYYADSVKGRFTISRDNAKNTVYLQMNSLKPEDTAVYYCNADYGDTFEYDYWGQGTQVTVSS", "polyreactivity (PSR sort gate)": "low polyreactivity"}, {"sequence": "QVQLVESGGGLVQAGGSLRLSCAASGFIFVDYDMGWYRQAPGKERELVASINWSGGSTDYADSVKGRFTISRDNAKNTVYLQMNSLKPEDTAVYYCAAEGQDGRFYWGQGTQVTVSS", "polyreactivity (PSR sort gate)": "low polyreactivity"}, {"sequence": "QVQLVESGGGLVQAGGSLRLSCAASGFIFVFYAMGWYRQAPGKERELVAAITWSGGGTYYADSVKGRFTISRDNAKNTVYLQMNSLKPEDTAVYYCNAEEPQYYYVLDKLYDYWGQGTQVTVSS", "polyreactivity (PSR sort gate)": "low polyreactivity"}, {"sequence": "QVQLVESGGGLVQAGGSLRLSCAASGFIFVFYDMGWYRQAPGKERELVAGITRNDGSTYYADSVKGRFKISRDNAKNTVYLLMNSLKPEDTAVYYCAADRVRRNDKLAYDYWGQGTQVTVSS", "polyreactivity (PSR sort gate)": "low polyreactivity"}, {"sequence": "QVQLVESGGGLVQAGGSLRLSCAASGFIFVGNAMGWYRQAPGKERELVAAISRRGSRTFYADSVKGRFTISRDNAKNTVYLQMNSLKPEDTAVYYCATDKWYGYYYWGQGTQVTVSS", "polyreactivity (PSR sort gate)": "low polyreactivity"}, {"sequence": "QVQLVESGGGLVQAGGSLRLSCAASGFIFVGYAMGWYRQAPGKERELVAAISKSGGSTYYADSVKGRFTISRDNAKNTVYLQMNSLKPEDTAVYYCAAAYASRNYRGLDYWGQGIQVTVSS", "polyreactivity (PSR sort gate)": "high polyreactivity"}, {"sequence": "QVQLVESGGGLVQAGGSLRLSCAASGFIFVKYAMGWYRQAPGKERELVAAISSTGGRTYYADSVKGRFTISRDNAKNTVYLQMNSLKPEVTAVYYCATEYGYPYGYWGQCTQVTVSS", "polyreactivity (PSR sort gate)": "high polyreactivity"}, {"sequence": "QVQLVESGGGLVQAGGSLRLSCAASGFIFVLYAMGWDRQAPGKERELVAAINGGSSTNYADSVKGRFTISRDNAKNTVYLQMNSLKPEDTAVYYCAADVIPDGVKKPRMYYWGQGTQVTVSS", "polyreactivity (PSR sort gate)": "low polyreactivity"}, {"sequence": "QVQLVESGGGLVQAGGSLRLSCAASGFIFVPNAMGWYRQAPGKERELVAAIRWSDGTTYYADSVKGRFTISRDNAKNTVYLQMNSLKPEDTAVYYCATDHDPRYDYWGQGTQVTVSS", "polyreactivity (PSR sort gate)": "high polyreactivity"}, {"sequence": "QVQLVESGGGLVQAGGSLRLSCAASGFIFVPYAMGWYRQAPGKEREFVAAIRCSGGRTYYADSVKGRFSISRDYAKNTVYLQMNSLKPDDTAVYYCAADTWQDRVRKTSFGYDYWGQGTQVTVSS", "polyreactivity (PSR sort gate)": "high polyreactivity"}, {"sequence": "QVQLVESGGGLVQAGGSLRLSCAASGFIFVPYAMGWYRQAPGKERELVARITWSGGRTYYADSVKGRFTISRDNAKNTVYLQMNSLKPEDTAVYYCNADVYGFDYWGQGTQVTVSS", "polyreactivity (PSR sort gate)": "high polyreactivity"}, {"sequence": "QVQLVESGGGLVQAGGSLRLSCAASGFIFVRNAMGWYRQAPGKERELVAVITRGGSTYYADSVKGRFTISRDNAKNTVYLQMNSLKPEDTAVYYCDARYYRGTYGRTEGAMDYWGQGTQVTVSS", "polyreactivity (PSR sort gate)": "high polyreactivity"}, {"sequence": "QVQLVESGGGLVQAGGSLRLSCAASGFIFVRYAMGWYRQAPGKERELVAAISWRGGSTYFADSVKGRFTISRDNAKNTVYLQMNSLKPEDTAVYYCAAVTWVHRYSRFNPFVAFDYWGQGTQVTVSS", "polyreactivity (PSR sort gate)": "high polyreactivity"}, {"sequence": "QVQLVESGGGLVQAGGSLRLSCAASGFIFVRYAMGWYRQAPGKERELVAAITRSGTSTYYADSVKGRFTISRDNAKTTVNLQMNSLKPEDTAVYYCAKEVRSRYGYWGQGTQVTVSS", "polyreactivity (PSR sort gate)": "high polyreactivity"}, {"sequence": "QVQLVESGGGLVQAGGSLRLSCAASGFIFVRYAMGWYRQAPGKERELVASITRSGGSTYYADSVKGRFTISRDNAKNTVYLQMNSLKPEDTAVYYCNAGLLRRRMDYWGQGTQVTVSS", "polyreactivity (PSR sort gate)": "high polyreactivity"}, {"sequence": "QVQLVESGGGLVQAGGSLRLSCAASGFIFVRYAMGWYRQAPGTERELVASITRSGGSTYYADSVKGRFTISRDNAKNTVYLQLNSLKPEDSAVYYCAASYYRSRGSTYGYWGQGTQVTVSS", "polyreactivity (PSR sort gate)": "high polyreactivity"}, {"sequence": "QVQLVESGGGLVQAGGSLRLSCAASGFIFVRYGMGWYRQAPGKERELVAAITWNGGSTFYADSVKGRFTISRDNAKNTVYLQMNSLKPEDTAVYYCAAGYKYSYRSIYTHVDYWGQGTQVTVSS", "polyreactivity (PSR sort gate)": "low polyreactivity"}, {"sequence": "QVQLVESGGGLVQAGGSLRLSCAASGFIFVSNAMGWYRQAPGKERELVAAISKSGARTSYADSVKGRFTISRDNAKNTVYLQMNSLKPEDTAVYYCAASGSGVGIYYKRGNYWGQGTQVTVSS", "polyreactivity (PSR sort gate)": "high polyreactivity"}, {"sequence": "QVQLVESGGGLVQAGGSLRLSCAASGFIFVTNAMGWYRQAPGKERELVAAINWSGGRTYYADSVKGRFTISRDNAKNTVYLQMNSLKPEDTAVYYCAADPYARLGEYGYWGQGTQVTVSS", "polyreactivity (PSR sort gate)": "low polyreactivity"}, {"sequence": "QVQLVESGGGLVQAGGSLRLSCAASGFIFVTYAMGWYRHAPGKERELVAAITNSGGTTYYADSVKGRFTISRDNAKNTVYLQMNSLKPEDTAVYYCNKPYGAETAHREFDYWGQGTQVTVSS", "polyreactivity (PSR sort gate)": "low polyreactivity"}]}]}
